Experimental data reported in publication PMC5424706 (Molecular cell, 2017).

B1: MgtC-FLAG, in vitro synthesized (natural protein)
chain: MEERMLMFPYILNLLAAMLLGALIGAERQWRQRMAGLRTNALVATGAAVFILSSMTTSPDSPGRIAAQIVSGIGFLGAGVIMREGMNVRGLNTAATLWCSAGIGVLCGLGQFKNALAATIIILCANILLREAAQRINQLPISAEGEKRYILKVTCNKEDESAVRQWLLNIVKEAAICLQGLGSVPAQEQGYKEIRAELVGHADYRKTRELIISRIGDNDNITAIHWSIDSQ

What was measured:
[1] = target: PhoP-HA protein, purified (Salmonella enterica serovar Typhimurium (strain 14028s)) (UniProt D0ZV90); assay: pull-down
[2] = target: T1, PhoP-HA protein, purified (Salmonella enterica serovar Typhimurium …, UniProt D0ZV90 1-224); assay: pull-down
T1 sequence: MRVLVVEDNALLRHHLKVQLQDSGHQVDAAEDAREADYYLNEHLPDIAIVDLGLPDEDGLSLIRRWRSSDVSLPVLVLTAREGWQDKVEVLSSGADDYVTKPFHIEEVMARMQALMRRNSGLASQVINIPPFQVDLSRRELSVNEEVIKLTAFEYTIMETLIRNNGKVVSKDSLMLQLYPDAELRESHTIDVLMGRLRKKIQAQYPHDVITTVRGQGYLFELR

| Molecule | IC50 [1] [µM] | IC50 [2] [µM] |
| --- | --- | --- |
| ClpS-FLAG, in vitro synthesized (natural protein) | 14.6 |  |
| B1 |  | 8.4 |
